Data as given in patent US5985836A, “Alpha-1 proteinase inhibitor binding peptides” (Bayer Corporation, priority 1998, dated 1999).
Ends that are not written are not given here.

Legend:
A1PI [1] = target: T1, A1PI (Homo sapiens, UniProt P01009); assay: A1PI binding on peptide-resin column, injection of 1 mg A1PI in equilibration buffer; conditions: 1 mg A1PI in equilibration buffer
T1 construct: Human plasma is currently the only approved source of therapeutic AlPI
Outline: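 Peptides synthesized on A-Totda-Toyopearl chelate resin (0.1 mmole/g) packed in 0.4×5 cm columns; 1 mg A1PI injected in equilibration buffer at 4 °C or 20 °C, 865 or 523 μl/min. Flowthrough, 1M/3M NaCl washes and 2% acetic acid eluate quantified by A280 or immunonephelometry as percent of total eluted.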

[2] = target: T2, apolipoprotein alpha-1 (Apo A-1) (Homo sapiens, UniProt P02647); assay: Purification from Effluent II+III, Apo A-1 mass balance; type: binding; conditions: 1 ml Eff. II+III, 4° C.
T2 construct: Eff; II+III is a process intermediate in the Cohn plasma fractionation process; tissue Bayer Corporation (Clayton, N.C.); host or cells: plasma fraction: Cohn Effluent II+III
Outline: (§1)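 Peptide-ligand columns were loaded with 1 ml Cohn Effluent II+III (20% v/v ethanol, 20-25 mg/ml hSA, ~1 mg/ml A1PI, other plasma proteins at 0.1-1 mg/ml) using a 10 min residence time at 4° C. Step elutions at 865 μl/min used 1M NaCl, 3M NaCl, then 2% acetic acid, and protein mass balances were tracked across fractions.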

haptoglobin (Hpt) = assay: Purification from Effluent II+III, haptoglobin mass balance; type: binding, human; conditions: 1 ml Eff. II+III, 4° C.
Method: Sequences 1-11 and 15 were assayed with Effluent II+III (Eff. II+III). Eff. II+III is a process intermediate in the Cohn plasma fractionation process. The feed stream contains 20% (by volume) ethanol, 20-25 mg/ml hSA and approximately 1 mg/ml AlPI. The stream also contains other proteins including anti-thrombin III (AT3), immunoglobin G (IgG), immunoglobin A (IgA), apolipoprotein alpha-1 (Apo A-1), transferrin (Trf), haptoglobin (Hpt), and alpha-1 acid glycoprotein (AAG) at concentrations ranging from 0.1-1 mg/ml.
The columns were assayed using the same technique as the hSA+AlPI experiments, allowing for a 10 minute residence time followed by a constant flow rate of 865 μl/min with step elutions of 1M NaCl, 3M NaCl, and 2% acetic acid. All experiments were conducted at 4° C. The mass balances for the injection of 1 ml Eff. […] The AlPI was enriched from 3% of the total protein in the feed to upwards of 50% in the acid eluate.

Immunoglobulin A (IgA) = assay: Purification from Effluent II+III, IgA mass balance; type: binding, human; conditions: 1 ml Eff. II+III, 4° C.
Outline: as §1

A1PI [3] = target: T1, A1PI; assay: A1PI purification from 5 mg hSA + 1 mg A1PI on peptide column, A1PI mass balance; type: binding; conditions: A1PI, 5 mg hSA + 1 mg A1PI; for Percent Eluted by Fraction, 1M NaCl / Percent Eluted by Fraction, 2% Ac. Acid / Percent Eluted by Fraction, 3M NaCl / Percent Eluted by Fraction, Flow: relative to total eluted
Outline: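 Peptides on A-Totda-Toyopearl resin (0.1 mmole/g) in 0.4×5 cm columns; 5 mg hSA + 1 mg A1PI loaded at 4 °C or 20 °C with 10 min residence (17 μl/min). Steps of 1M and 3M NaCl, then 2% acetic acid; fractions quantified by immunonephelometry for mass balance.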

A1PI [4] = target: T1, A1PI; assay: Purification of A1PI from Effluent II+III on peptide column, A1PI mass balance; type: binding; conditions: A1PI, 1 ml Eff. II+III, 4° C.
Outline: as §1

Immunoglobulin G (IgG) = assay: Purification from Effluent II+III, IgG mass balance; type: binding, human; conditions: 1 ml Eff. II+III, 4° C.
Outline: as §1

A1PI [5] = target: T1, A1PI; assay: Capture and elution of active A1PI with 2M urea buffer (elastase inhibition activity assay and immunonephelometry); type: binding; conditions: 4° C.
[6] = * as in Tables 4, 5 (below detection limit)
[7] = 20° C., * Below detection limit

T2 sequence (P02647 19-267): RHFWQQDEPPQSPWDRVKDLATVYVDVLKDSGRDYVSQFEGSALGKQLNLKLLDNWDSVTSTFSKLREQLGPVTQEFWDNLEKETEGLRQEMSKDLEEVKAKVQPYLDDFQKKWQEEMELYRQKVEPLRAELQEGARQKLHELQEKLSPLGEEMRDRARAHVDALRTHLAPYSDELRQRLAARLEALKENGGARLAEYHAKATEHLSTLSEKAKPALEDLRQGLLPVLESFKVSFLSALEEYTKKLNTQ
T1 sequence (P01009 25-418): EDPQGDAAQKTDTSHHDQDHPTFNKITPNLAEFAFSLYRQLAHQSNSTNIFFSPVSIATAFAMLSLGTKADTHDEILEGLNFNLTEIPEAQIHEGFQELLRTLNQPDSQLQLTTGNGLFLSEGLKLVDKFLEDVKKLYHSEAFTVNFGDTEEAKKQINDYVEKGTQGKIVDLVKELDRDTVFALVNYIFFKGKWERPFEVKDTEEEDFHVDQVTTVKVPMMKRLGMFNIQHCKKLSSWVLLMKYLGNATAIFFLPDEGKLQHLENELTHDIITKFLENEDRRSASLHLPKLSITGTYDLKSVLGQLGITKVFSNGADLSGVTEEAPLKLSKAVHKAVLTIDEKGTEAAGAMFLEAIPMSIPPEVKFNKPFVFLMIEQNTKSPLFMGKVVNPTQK

LIVHRW
Percent A1PI Eluted by Fraction Based on Absorbance at 280 nm, 1M NaCl (A1PI [1]; 4° C.): 74%
Percent A1PI Eluted by Fraction Based on Absorbance at 280 nm, 2% Acetic Acid (A1PI [1]; 4° C.): 26%
Percent A1PI Eluted by Fraction Based on Absorbance at 280 nm, Flowthrough (A1PI [1]; 4° C.): 0%
Percent A1PI Eluted by Fraction, 1M NaCl (A1PI [1]; 20° C.): 64%
Percent A1PI Eluted by Fraction, 2% Acetic Acid (A1PI [1]; 20° C.): 36%
Percent A1PI Eluted by Fraction, Flowthrough (A1PI [1]; 20° C.): 0%
Percent Eluted by Fraction, 1M NaCl [2]: 0%
Percent Eluted by Fraction, 2% Acetic Acid [2]: 51%
Percent Eluted by Fraction, 3M NaCl [2]: 0%
Percent Eluted by Fraction, Flow [2]: 49%
Mass Protein per Eluate Fraction, 2% Acetic Acid [2, 6]: 0.30 mg
Mass Protein per Eluate Fraction, Flow [2, 6]: 0.28 mg
Percent Eluted by Fraction, 1M NaCl (haptoglobin (Hpt)): 40%
Percent Eluted by Fraction, 2% Acetic Acid (haptoglobin (Hpt)): 0%
Percent Eluted by Fraction, 3M NaCl (haptoglobin (Hpt)): 0%
Percent Eluted by Fraction, Flow (haptoglobin (Hpt)): 60%
Mass Protein per Eluate Fraction, 1M NaCl (haptoglobin (Hpt); [6]): 0.29 mg
Mass Protein per Eluate Fraction, Flow (haptoglobin (Hpt); [6]): 0.43 mg
Percent Eluted by Fraction, 1M NaCl (Immunoglobulin A (IgA)): 43%
Percent Eluted by Fraction, 2% Acetic Acid (Immunoglobulin A (IgA)): 20%
Percent Eluted by Fraction, 3M NaCl (Immunoglobulin A (IgA)): 0%
Percent Eluted by Fraction, Flow (Immunoglobulin A (IgA)): 37%
Mass Protein per Eluate Fraction, 1M NaCl (Immunoglobulin A (IgA); [6]): 0.18 mg
Mass Protein per Eluate Fraction, 2% Acetic Acid (Immunoglobulin A (IgA); [6]): 0.08 mg
Mass Protein per Eluate Fraction, Flow (Immunoglobulin A (IgA); [6]): 0.15 mg
Mass Protein per Eluate Fraction, 1M NaCl (A1PI [3]; 4° C., * Below detection limit): 0.40 mg
Mass Protein per Eluate Fraction, 2% Ac. Acid (A1PI [3]; 4° C., * Below detection limit): 0.24 mg
Percent Eluted by Fraction, 1M NaCl (A1PI [3]; 4° C.): 62%
Percent Eluted by Fraction, 2% Ac. Acid (A1PI [3]; 4° C.): 38%
Percent Eluted by Fraction, 3M NaCl (A1PI [3]; 4° C.): 0%
Percent Eluted by Fraction, Flow (A1PI [3]; 4° C.): 0%
Mass Protein per Eluate Fraction, 1M NaCl (A1PI [3]; [7]): 0.15 mg
Mass Protein per Eluate Fraction, 2% Ac. Acid (A1PI [3]; [7]): 0.37 mg
Mass Protein per Eluate Fraction, Flow (A1PI [3]; [7]): 0.34 mg
Percent Eluted by Fraction, 1M NaCl (A1PI [3]; 20° C.): 18%
Percent Eluted by Fraction, 2% Ac. Acid (A1PI [3]; 20° C.): 43%
Percent Eluted by Fraction, 3M NaCl (A1PI [3]; 20° C.): 0%
Percent Eluted by Fraction, Flow (A1PI [3]; 20° C.): 39%
Percent Eluted by Fraction, 1M NaCl (A1PI [4]): 16%
Percent Eluted by Fraction, 2% Acetic Acid (A1PI [4]): 25%
Percent Eluted by Fraction, 3M NaCl (A1PI [4]): 0%
Percent Eluted by Fraction, Flow (A1PI [4]): 59%
Mass Protein per Eluate Fraction, 1M NaCl (A1PI [4]; [6]): 0.20 mg
Mass Protein per Eluate Fraction, 2% Acetic Acid (A1PI [4]; [6]): 0.30 mg
Mass Protein per Eluate Fraction, Flow (A1PI [4]; [6]): 0.71 mg
Percent Eluted by Fraction, 1M NaCl (Immunoglobulin G (IgG)): 0%
Percent Eluted by Fraction, 2% Acetic Acid (Immunoglobulin G (IgG)): 0%
Percent Eluted by Fraction, 3M NaCl (Immunoglobulin G (IgG)): 0%
Percent Eluted by Fraction, Flow (Immunoglobulin G (IgG)): 100%
Mass Protein per Eluate Fraction, Flow (Immunoglobulin G (IgG); [6]): 0.31 mg
Mass A1PI in Urea Eluate (mg), Activity (A1PI [5]; 1 mg A1PI, eluted with 2M urea, pH 6, elastase inhibition activity assay): 0.75 mg
Mass A1PI in Urea Eluate (mg), Nephelometry (A1PI [5]; 1 mg A1PI, eluted with 2M urea, pH 6, immunonephelometry): 0.85 mg
Specific Activity (A1PI [5]; mass of A1PI by activity assay relative to immunonephelometry, urea eluate): 0.88 mg/mg
